{
  "source": "patent US20240261333A1",
  "about": "“NOVEL TARGETS FOR ENHANCING ANTI-TUMOR IMMUNITY” (THE BROAD INSTITUTE, INC., priority 2021, published 2024)",
  "key": {"[1]": {"target": "ENO1 (UniProt P06733)", "assay": "co-IP with mouse IgG control, mass spectrometry; lysate of C-FLAG B3GNT2 cells"}, "[2]": {"target": "HNRNPA1 (UniProt P09651)", "assay": "co-IP with mouse IgG control, mass spectrometry; lysate of C-FLAG B3GNT2 cells"}, "[3]": {"target": "HNRNPF (UniProt P52597)", "assay": "co-IP with mouse IgG control, mass spectrometry; lysate of C-FLAG B3GNT2 cells"}, "[4]": {"target": "LTF (UniProt P02788)", "assay": "co-IP with mouse IgG control, mass spectrometry; lysate of C-FLAG B3GNT2 cells"}, "[5]": {"target": "PPIA (UniProt P62937)", "assay": "co-IP with mouse IgG control, mass spectrometry; lysate of C-FLAG B3GNT2 cells"}, "[6]": {"target": "RPL10A (UniProt P62906)", "assay": "co-IP with mouse IgG control, mass spectrometry; lysate of C-FLAG B3GNT2 cells"}, "[7]": {"target": "RPL21 (UniProt P46778)", "assay": "co-IP with mouse IgG control, mass spectrometry; lysate of C-FLAG B3GNT2 cells"}, "[8]": {"target": "RPL31 (UniProt P62899)", "assay": "co-IP with mouse IgG control, mass spectrometry; lysate of C-FLAG B3GNT2 cells"}, "[9]": {"target": "RPLP2 (UniProt P05387)", "sequence (P05387 whole entry)": "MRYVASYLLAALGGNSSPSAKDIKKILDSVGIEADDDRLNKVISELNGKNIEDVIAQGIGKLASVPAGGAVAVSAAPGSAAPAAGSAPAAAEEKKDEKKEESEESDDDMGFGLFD", "assay": "co-IP with mouse IgG control, mass spectrometry; lysate of C-FLAG B3GNT2 cells"}, "[10]": {"target": "RPN1 (UniProt P04843)", "sequence (P04843 24-607 limits assumed)": "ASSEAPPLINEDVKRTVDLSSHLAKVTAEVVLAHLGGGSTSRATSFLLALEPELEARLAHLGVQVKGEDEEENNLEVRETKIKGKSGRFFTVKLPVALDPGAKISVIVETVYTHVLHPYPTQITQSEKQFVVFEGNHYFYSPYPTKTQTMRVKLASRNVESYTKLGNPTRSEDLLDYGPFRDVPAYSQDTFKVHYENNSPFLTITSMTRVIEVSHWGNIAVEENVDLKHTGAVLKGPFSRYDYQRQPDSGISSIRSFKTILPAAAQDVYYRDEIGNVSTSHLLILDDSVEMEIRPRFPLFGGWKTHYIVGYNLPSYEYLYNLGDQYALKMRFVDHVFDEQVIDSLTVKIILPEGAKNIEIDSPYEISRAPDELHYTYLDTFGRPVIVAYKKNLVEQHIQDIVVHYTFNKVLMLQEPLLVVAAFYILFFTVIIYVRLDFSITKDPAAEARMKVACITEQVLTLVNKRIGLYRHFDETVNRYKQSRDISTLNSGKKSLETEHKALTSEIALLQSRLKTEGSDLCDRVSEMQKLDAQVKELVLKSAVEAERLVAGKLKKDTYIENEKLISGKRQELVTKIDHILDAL", "assay": "co-IP with mouse IgG control, mass spectrometry; lysate of C-FLAG B3GNT2 cells"}, "[11]": {"target": "RPS11 (UniProt P62280)", "assay": "co-IP with mouse IgG control, mass spectrometry; lysate of C-FLAG B3GNT2 cells"}, "[12]": {"target": "S100A8 (UniProt P05109)", "assay": "co-IP with mouse IgG control, mass spectrometry; lysate of C-FLAG B3GNT2 cells"}, "[13]": {"target": "SLIRP (UniProt Q9GZT3)", "assay": "co-IP with mouse IgG control, mass spectrometry; lysate of C-FLAG B3GNT2 cells"}, "[14]": {"target": "YWHAZ (UniProt P63104)", "assay": "co-IP with mouse IgG control, mass spectrometry; lysate of C-FLAG B3GNT2 cells"}, "[15]": {"target": "ATP1A1 (human) (UniProt P05023)", "assay": "co-IP/MS, anti-FLAG IP of C-FLAG B3GNT2 cell lysate"}, "[16]": {"target": "CALU (human) (UniProt O43852)", "assay": "co-IP/MS, anti-FLAG IP of C-FLAG B3GNT2 cell lysate"}, "[17]": {"target": "CAPZB (human) (UniProt P47756)", "assay": "co-IP/MS, anti-FLAG IP of C-FLAG B3GNT2 cell lysate"}, "[18]": {"target": "CASP14 (human) (UniProt P31944)", "sequence (P31944 whole entry)": "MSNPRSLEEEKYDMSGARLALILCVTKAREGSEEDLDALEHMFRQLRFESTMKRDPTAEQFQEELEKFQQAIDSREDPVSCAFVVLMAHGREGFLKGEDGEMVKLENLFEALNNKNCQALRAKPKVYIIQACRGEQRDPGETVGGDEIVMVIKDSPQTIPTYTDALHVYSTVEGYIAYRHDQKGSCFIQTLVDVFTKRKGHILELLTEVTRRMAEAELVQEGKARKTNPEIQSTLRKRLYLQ", "assay": "co-IP/MS, anti-FLAG IP of C-FLAG B3GNT2 cell lysate"}, "[19]": {"target": "CKAP4 (human) (UniProt Q07065)", "assay": "co-IP/MS, anti-FLAG IP of C-FLAG B3GNT2 cell lysate"}, "[20]": {"target": "DNAJA1 (human) (UniProt P31689)", "assay": "co-IP/MS, anti-FLAG IP of C-FLAG B3GNT2 cell lysate"}, "[21]": {"target": "ERLIN1 (human) (UniProt O75477)", "assay": "co-IP/MS, anti-FLAG IP of C-FLAG B3GNT2 cell lysate"}, "[22]": {"target": "ERLIN2 (human) (UniProt O94905)", "assay": "co-IP/MS, anti-FLAG IP of C-FLAG B3GNT2 cell lysate"}, "[23]": {"target": "FAM3C (human) (UniProt Q92520)", "assay": "co-IP/MS, anti-FLAG IP of C-FLAG B3GNT2 cell lysate"}, "[24]": {"target": "FKBP10 (human) (UniProt Q96AY3)", "sequence (Q96AY3 27-582 limits assumed)": "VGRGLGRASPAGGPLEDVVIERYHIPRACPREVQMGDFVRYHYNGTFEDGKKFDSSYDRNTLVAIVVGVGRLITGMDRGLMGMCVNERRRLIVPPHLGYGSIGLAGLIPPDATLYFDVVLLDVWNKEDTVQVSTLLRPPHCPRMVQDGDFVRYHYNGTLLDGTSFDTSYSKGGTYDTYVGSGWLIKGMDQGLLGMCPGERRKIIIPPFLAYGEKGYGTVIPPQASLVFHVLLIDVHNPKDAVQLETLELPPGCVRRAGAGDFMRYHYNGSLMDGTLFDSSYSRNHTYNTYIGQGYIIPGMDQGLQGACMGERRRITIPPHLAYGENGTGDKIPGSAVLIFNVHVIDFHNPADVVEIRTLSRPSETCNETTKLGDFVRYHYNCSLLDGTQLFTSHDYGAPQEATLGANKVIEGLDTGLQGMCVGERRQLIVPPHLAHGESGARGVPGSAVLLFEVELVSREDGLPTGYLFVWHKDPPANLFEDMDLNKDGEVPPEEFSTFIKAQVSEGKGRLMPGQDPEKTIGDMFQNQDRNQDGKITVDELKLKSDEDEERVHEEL", "assay": "co-IP/MS, anti-FLAG IP of C-FLAG B3GNT2 cell lysate"}, "[25]": {"target": "GCN1 (human) (UniProt Q92616)", "sequence (Q92616 2-2671 limits assumed)": "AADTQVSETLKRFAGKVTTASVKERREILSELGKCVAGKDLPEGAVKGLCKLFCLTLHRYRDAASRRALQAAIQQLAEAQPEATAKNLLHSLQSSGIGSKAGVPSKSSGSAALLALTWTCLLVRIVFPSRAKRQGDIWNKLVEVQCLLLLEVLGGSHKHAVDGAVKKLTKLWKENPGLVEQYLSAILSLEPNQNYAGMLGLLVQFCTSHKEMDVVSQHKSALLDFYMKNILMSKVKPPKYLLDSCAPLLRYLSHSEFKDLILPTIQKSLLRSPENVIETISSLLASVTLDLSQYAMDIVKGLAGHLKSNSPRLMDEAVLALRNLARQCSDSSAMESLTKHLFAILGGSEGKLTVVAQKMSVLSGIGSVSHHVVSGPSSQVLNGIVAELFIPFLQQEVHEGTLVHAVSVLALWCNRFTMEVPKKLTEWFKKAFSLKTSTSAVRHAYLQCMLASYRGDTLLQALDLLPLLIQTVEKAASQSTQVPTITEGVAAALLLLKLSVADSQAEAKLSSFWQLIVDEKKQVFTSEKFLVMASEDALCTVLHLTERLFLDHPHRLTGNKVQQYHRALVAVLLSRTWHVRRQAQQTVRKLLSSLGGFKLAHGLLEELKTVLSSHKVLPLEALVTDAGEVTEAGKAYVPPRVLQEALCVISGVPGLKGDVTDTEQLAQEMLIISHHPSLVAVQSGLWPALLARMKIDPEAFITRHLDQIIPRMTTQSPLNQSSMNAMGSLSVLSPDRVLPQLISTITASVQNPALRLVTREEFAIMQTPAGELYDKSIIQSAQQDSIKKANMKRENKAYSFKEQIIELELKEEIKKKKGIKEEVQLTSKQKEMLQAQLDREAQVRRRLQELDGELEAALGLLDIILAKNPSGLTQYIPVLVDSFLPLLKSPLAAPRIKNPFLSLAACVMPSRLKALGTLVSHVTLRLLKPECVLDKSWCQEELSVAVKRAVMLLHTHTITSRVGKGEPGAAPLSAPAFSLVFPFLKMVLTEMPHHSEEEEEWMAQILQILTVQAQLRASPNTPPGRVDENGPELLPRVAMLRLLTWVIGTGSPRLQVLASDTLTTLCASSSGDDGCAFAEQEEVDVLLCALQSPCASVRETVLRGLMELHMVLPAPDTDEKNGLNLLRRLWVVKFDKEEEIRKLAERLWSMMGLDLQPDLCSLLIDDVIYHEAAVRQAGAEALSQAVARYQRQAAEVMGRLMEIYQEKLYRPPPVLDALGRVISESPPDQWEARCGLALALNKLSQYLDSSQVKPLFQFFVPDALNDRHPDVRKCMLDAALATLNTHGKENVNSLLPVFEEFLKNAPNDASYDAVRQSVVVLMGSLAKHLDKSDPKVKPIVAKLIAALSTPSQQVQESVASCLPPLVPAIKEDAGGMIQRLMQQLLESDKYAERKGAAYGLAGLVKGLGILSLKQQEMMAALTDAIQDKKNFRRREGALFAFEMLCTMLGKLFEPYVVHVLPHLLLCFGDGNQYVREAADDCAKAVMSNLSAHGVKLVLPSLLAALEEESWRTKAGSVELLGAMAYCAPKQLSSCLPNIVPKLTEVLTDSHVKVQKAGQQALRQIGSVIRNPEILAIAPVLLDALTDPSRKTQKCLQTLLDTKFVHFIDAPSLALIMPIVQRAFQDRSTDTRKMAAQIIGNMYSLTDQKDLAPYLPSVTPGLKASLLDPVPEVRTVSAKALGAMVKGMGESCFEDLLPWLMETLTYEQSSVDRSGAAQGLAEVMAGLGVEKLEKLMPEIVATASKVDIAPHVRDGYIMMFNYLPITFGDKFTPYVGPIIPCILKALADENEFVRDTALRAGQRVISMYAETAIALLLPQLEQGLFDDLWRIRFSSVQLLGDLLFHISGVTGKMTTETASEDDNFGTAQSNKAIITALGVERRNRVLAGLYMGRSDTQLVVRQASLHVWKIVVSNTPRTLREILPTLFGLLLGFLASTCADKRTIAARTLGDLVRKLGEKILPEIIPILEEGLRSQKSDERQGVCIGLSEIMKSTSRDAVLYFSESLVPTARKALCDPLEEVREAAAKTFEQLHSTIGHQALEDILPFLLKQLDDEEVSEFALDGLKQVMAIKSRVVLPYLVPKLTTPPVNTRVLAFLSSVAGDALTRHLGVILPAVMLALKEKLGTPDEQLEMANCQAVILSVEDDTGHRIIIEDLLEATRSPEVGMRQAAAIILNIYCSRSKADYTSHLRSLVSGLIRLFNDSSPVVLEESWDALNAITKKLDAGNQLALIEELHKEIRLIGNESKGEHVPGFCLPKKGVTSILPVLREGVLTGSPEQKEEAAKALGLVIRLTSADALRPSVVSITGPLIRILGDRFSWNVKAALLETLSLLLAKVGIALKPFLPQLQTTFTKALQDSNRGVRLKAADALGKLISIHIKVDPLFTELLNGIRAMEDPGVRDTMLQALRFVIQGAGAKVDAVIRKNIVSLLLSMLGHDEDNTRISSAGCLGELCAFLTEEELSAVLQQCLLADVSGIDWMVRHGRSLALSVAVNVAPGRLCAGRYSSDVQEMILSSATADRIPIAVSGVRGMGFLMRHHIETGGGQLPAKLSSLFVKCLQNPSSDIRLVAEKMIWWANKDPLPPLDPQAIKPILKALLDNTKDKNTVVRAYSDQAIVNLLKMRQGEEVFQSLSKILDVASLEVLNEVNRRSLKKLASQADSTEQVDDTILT", "assay": "co-IP/MS, anti-FLAG IP of C-FLAG B3GNT2 cell lysate"}, "[26]": {"target": "HSD17B12 (human) (UniProt Q53GQ0)", "assay": "co-IP/MS, anti-FLAG IP of C-FLAG B3GNT2 cell lysate"}, "[27]": {"target": "IPO4 (human) (UniProt Q8TEX9)", "assay": "co-IP/MS, anti-FLAG IP of C-FLAG B3GNT2 cell lysate"}, "[28]": {"target": "PRDX2 (human) (UniProt P32119)", "sequence (P32119 2-198 limits assumed)": "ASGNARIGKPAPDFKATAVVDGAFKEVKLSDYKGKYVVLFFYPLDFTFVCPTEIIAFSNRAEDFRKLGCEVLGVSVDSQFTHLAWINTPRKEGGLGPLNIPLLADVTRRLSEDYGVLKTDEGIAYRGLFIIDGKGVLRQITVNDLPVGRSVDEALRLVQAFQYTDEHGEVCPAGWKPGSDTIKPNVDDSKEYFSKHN", "assay": "co-IP/MS, anti-FLAG IP of C-FLAG B3GNT2 cell lysate"}, "[29]": {"target": "RCN2 (human) (UniProt Q14257)", "sequence (Q14257 other isoform, or with tags, fused parts or gaps limits assumed)": "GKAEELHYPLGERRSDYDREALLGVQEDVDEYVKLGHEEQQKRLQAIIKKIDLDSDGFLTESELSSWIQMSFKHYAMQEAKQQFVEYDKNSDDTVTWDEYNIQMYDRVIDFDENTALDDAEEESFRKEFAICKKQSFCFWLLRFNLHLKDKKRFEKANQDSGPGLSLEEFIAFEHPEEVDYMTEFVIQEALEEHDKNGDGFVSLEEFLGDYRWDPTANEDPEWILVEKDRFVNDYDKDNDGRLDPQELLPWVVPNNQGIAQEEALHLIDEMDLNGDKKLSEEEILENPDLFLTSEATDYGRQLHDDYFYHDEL", "assay": "co-IP/MS, anti-FLAG IP of C-FLAG B3GNT2 cell lysate"}, "[30]": {"target": "RPL13A (human) (UniProt P40429)", "assay": "co-IP/MS, anti-FLAG IP of C-FLAG B3GNT2 cell lysate"}, "[31]": {"target": "RPL14 (human) (UniProt P50914)", "assay": "co-IP/MS, anti-FLAG IP of C-FLAG B3GNT2 cell lysate"}, "[32]": {"target": "RPS15 (human) (UniProt P62841)", "assay": "co-IP/MS, anti-FLAG IP of C-FLAG B3GNT2 cell lysate"}, "[33]": {"target": "RPS3A (human) (UniProt P61247)", "assay": "co-IP/MS, anti-FLAG IP of C-FLAG B3GNT2 cell lysate"}, "[34]": {"target": "RPS5 (human) (UniProt P46782)", "assay": "co-IP/MS, anti-FLAG IP of C-FLAG B3GNT2 cell lysate"}, "[35]": {"target": "SLC25A4 (human) (UniProt P12235)", "sequence (P12235 2-298 limits assumed)": "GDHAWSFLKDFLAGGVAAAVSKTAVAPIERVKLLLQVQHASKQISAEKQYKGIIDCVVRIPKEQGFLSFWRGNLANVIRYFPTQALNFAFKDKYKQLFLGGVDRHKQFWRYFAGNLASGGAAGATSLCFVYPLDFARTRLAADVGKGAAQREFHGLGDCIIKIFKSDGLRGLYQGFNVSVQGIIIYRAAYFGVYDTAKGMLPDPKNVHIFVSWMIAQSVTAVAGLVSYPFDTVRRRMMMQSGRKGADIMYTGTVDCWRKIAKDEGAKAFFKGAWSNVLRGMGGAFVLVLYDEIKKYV", "assay": "co-IP/MS, anti-FLAG IP of C-FLAG B3GNT2 cell lysate"}, "[36]": {"target": "SQSTM1 (human) (UniProt Q13501)", "assay": "co-IP/MS, anti-FLAG IP of C-FLAG B3GNT2 cell lysate"}, "[37]": {"target": "TUBB (human) (UniProt P07437)", "assay": "co-IP/MS, anti-FLAG IP of C-FLAG B3GNT2 cell lysate"}, "[38]": {"target": "UQCRC2 (human) (UniProt P22695)", "assay": "co-IP/MS, anti-FLAG IP of C-FLAG B3GNT2 cell lysate"}},
  "data": [
    {"substance": "IgG control (Millipore Sigma 12-371) (antibody)", "values": [
      {"measurement": "co-IP mass spectrometry count", "setting": "[1]", "value": 2},
      {"measurement": "co-IP mass spectrometry count", "setting": "[2]", "value": 4},
      {"measurement": "co-IP mass spectrometry count", "setting": "[3]", "value": 3},
      {"measurement": "co-IP mass spectrometry count", "setting": "[4]", "value": 2},
      {"measurement": "co-IP mass spectrometry count", "setting": "[5]", "value": 0},
      {"measurement": "co-IP mass spectrometry count", "setting": "[6]", "value": 0},
      {"measurement": "co-IP mass spectrometry count", "setting": "[7]", "value": 5},
      {"measurement": "co-IP mass spectrometry count", "setting": "[8]", "value": 0},
      {"measurement": "co-IP mass spectrometry count", "setting": "[9]", "value": 0},
      {"measurement": "co-IP mass spectrometry count", "setting": "[10]", "value": 0},
      {"measurement": "co-IP mass spectrometry count", "setting": "[11]", "value": 9},
      {"measurement": "co-IP mass spectrometry count", "setting": "[12]", "value": 5},
      {"measurement": "co-IP mass spectrometry count", "setting": "[13]", "value": 0},
      {"measurement": "co-IP mass spectrometry count", "setting": "[14]", "value": 0}
    ]},
    {"substance": "C-terminal FLAG tagged B3GNT2 (from UniProt Q9NY97 1-397) (enzyme)", "values": [
      {"measurement": "co-IP mass spectrometry count", "setting": "[15]", "value": 12},
      {"measurement": "co-IP mass spectrometry count", "setting": "[16]", "value": 13},
      {"measurement": "co-IP mass spectrometry count", "setting": "[17]", "value": 5},
      {"measurement": "co-IP mass spectrometry count", "setting": "[18]", "value": 9},
      {"measurement": "co-IP mass spectrometry count", "setting": "[19]", "value": 14},
      {"measurement": "co-IP mass spectrometry count", "setting": "[20]", "value": 10},
      {"measurement": "co-IP mass spectrometry count", "setting": "[21]", "value": 9},
      {"measurement": "co-IP mass spectrometry count", "setting": "[22]", "value": 9},
      {"measurement": "co-IP mass spectrometry count", "setting": "[23]", "value": 23},
      {"measurement": "co-IP mass spectrometry count", "setting": "[24]", "value": 16},
      {"measurement": "co-IP mass spectrometry count", "setting": "[25]", "value": 4},
      {"measurement": "co-IP mass spectrometry count", "setting": "[26]", "value": 10},
      {"measurement": "co-IP mass spectrometry count", "setting": "[27]", "value": 17},
      {"measurement": "co-IP mass spectrometry count", "setting": "[28]", "value": 5},
      {"measurement": "co-IP mass spectrometry count", "setting": "[29]", "value": 16},
      {"measurement": "co-IP mass spectrometry count", "setting": "[30]", "value": 13},
      {"measurement": "co-IP mass spectrometry count", "setting": "[31]", "value": 21},
      {"measurement": "co-IP mass spectrometry count", "setting": "[32]", "value": 11},
      {"measurement": "co-IP mass spectrometry count", "setting": "[33]", "value": 29},
      {"measurement": "co-IP mass spectrometry count", "setting": "[34]", "value": 6},
      {"measurement": "co-IP mass spectrometry count", "setting": "[35]", "value": 14},
      {"measurement": "co-IP mass spectrometry count", "setting": "[36]", "value": 43},
      {"measurement": "co-IP mass spectrometry count", "setting": "[37]", "value": 117},
      {"measurement": "co-IP mass spectrometry count", "setting": "[38]", "value": 4}
    ]}
  ]
}
